From the RNAGym collection of RNA variant scans (doi:10.7554/elife.90254)

B1: OR4K15 (parent)
chain: GUUAACGGUCAUAGGCCAUGGAAACUAGGAGCACCAUUUCGCUGCCAGUGAAGAAAUGAACAAAGAAAAUCUGGGCCAGGCAGGCAUCAAAAGAAAUAGUCUUGCGCUCAACCAGAAAGUCUGUAAUCAUUUUAAGGGUA

Variants of: B1
Assay: self-cleavage, relative activity (ratio to wild type); higher = more cleavage; in vitro, sequencing; the parent is a self-cleaving ribozyme

Variant | self-cleavage
C35U A86G | 0.68
A33U A68G | 1.28
U37C A96G | 1.36
U37C A96U | 1.84
C35U A69G | 1.1
A36U U124C | 1.26
A36U G106A | 0.02
U37A C61U | 0.86
U37C A78C | 0.64
U37C A78G | 0.26
U37C A78U | 0.32
A33G U120G | 0.65
A33U A54G | 0.76
A36U A126G | 0.99
A36U A126U | 1.63
A36G G79A | 0.1
U37C A69G | 1.17
A36G G104A | 0.07
A36U A52G | 1.43
A33U A55G | 1.84
C34U A69U | 2.37
A36U A86G | 1.03
U37C C61A | 0.78
C34U A67U | 1.92

Variant | self-cleavage
A36G | 1.39
A36U | 1.38
A36C | 1.52
A33U A140G | 2.18
U37A A64G | 1.44
A33U U39A | 1.4
U37C | 1.27
U37A | 1.27
A36G U131C | 1.59
A36G U131A | 0.59
A33U U87A | 2.04
A33U U87C | 1.74
A36C A91G | 1.81
C35U A134G | 1.23
A36C G104A | 0.03
A36C A51U | 2.34
A36G G119C | 1.4
A33U U49G | 2.25
A36U U100C | 2.44
A36U U49C | 2.04
A33U U103C | 0.84
A33G U72C | 0.12
A33G U72G | 0.14
A33G U72A | 0.12

Variant | self-cleavage
U37C A62G | 1.57
U37A U38G | 2.08
A36U U43A | 1.85
A36U A116G | 0.96
A36U A116U | 0.5
C35A A36U | 0.97
U37C A140G | 1.24
C34U A96C | 0.19
A33G C113U | 0.02
A36U C113U | 0.02
A33G U133C | 0.88
A33G G106A | 0.04
C34U A36U | 1.19
A33G G138A | 0.65
A33G U39C | 0.8
A33G U39A | 1.23
A36G U133C | 2.18
A33U A114U | 0.08
A33U A114G | 0.64
C34A U57C | 1.31
A36C U130C | 2.1
C35A A129G | 1.27
U37C A54G | 1.51
C34U U87C | 1.63

Variant | self-cleavage
A36U U39C | 1.03
A36U A68G | 1.62
A36U A55G | 1.4
A36G A78G | 0.07
C35U U43A | 0.61
C34U A52G | 0.85
C35U U87C | 1
C35U U131C | 0.58
A33U A95G | 1.66
A36U A135C | 1.65
A36G A111C | 0
A36G A111G | 0.03
A33U U100C | 1.84
A33G U70C | 0.22
A33G G58A | 0.55
A36G A98C | 2.03
A33U G99A | 1.09
A36G A66U | 2.4
A36C U43C | 1.24
A33U C35U | 1.93
A36G A89U | 2.21
C35U A118G | 0.99
U37C A129G | 0.32
A33U A82G | 0.88

Variant | self-cleavage
A33U U124C | 1.22
A36U U87C | 1.76
U37C A66C | 1.34
U37C A66G | 1.73
A36C U49C | 1.28
U37C A60G | 0.54
A36C U132C | 1.67
C35A C61U | 1.59
A36G A68G | 2.06
A36G A68U | 1.65
A36C U127C | 1.51
A36U A69G | 1.56
A36C A62G | 2
U37C A51U | 1.83
U37C A51G | 1.49
A36G G123A | 1.46
U37C C46U | 1.33
U37A A52G | 2.37
C34U U139A | 1.61
A36G U132C | 1.72
A36G U132A | 1.41
A33G U131C | 0.63
A36U U120A | 2.08
A33U C34A | 1.81

Variant | self-cleavage
A36C A135G | 2.33
U37C A55G | 1.59
A36U U57C | 1.58
A36C A111G | 0.02
A36G C128A | 1.16
U37C A68U | 1.5
A36G C71U | 0.31
C35U A51G | 1.06
A33U C76G | 0.17
A33U A78G | 0.29
A36G U108A | 0.01
A36U A47G | 1.03
A36U A47U | 0.69
C34U U43C | 1.48
C35U U122C | 1.07
C35U U122A | 1.26
C34U A111G | 0.04
A33U A59G | 1.28
A36G A90G | 1.54
A36G A90C | 1.15
A36U U38C | 1.51
C35U A94G | 0.64
A33U A51U | 0.89
A36G A60G | 1.28

Variant | self-cleavage
U37C A118G | 1.36
U37C A63G | 0.79
A33G U102G | 0.47
A36U U127C | 0.93
C35U A95G | 1.74
A36G G106A | 0.02
C34U G44A | 1.66
C34U A110G | 0.19
A33U U139A | 0.95
U37C A59C | 1.08
U37C A59U | 1.91
C35U A91G | 1.19
U37C A94U | 1.67
A36U A91G | 1.42
A36U A91C | 1.76
U37A A51U | 1.05
C34U C101A | 0.21
A36C U103C | 1.44
A33G G53C | 0.81
A36U U97C | 0.37
A36U U97A | 2.69
C35U A111G | 0.05
C35U A111U | 0.05
A33U A60G | 1.38

Variant | self-cleavage
A36U A66U | 1.05
A33G U122A | 0.6
A36G U49A | 1.26
U37C C105U | 0.15
A33U A56G | 1.57
A36G U57C | 1.27
A36G U57G | 0.68
U37A A96U | 1.83
U37A A96G | 2.31
A33U A90G | 1.06
A36G A96G | 1.13
A33U U70C | 1
A36G C76U | 0.12
A33U A66U | 1.62
C35U A96G | 0.88
U37A A62G | 1.37
A36U G48A | 1.22
A33G U87A | 0.66
A33G U87C | 0.7
A36G A62G | 1.94
U37C A82G | 0.69
A36G A92U | 0.99
A36C A126G | 1.17
C35U U57A | 0.59

Variant | self-cleavage
A36G G136U | 1.95
C35U C71U | 0.22
U37C A111G | 0.03
U37C A111U | 0.15
A33U G48A | 1.42
C34A A60G | 1.39
A36G A110G | 0.07
A36G A110C | 0.39
C35U A92U | 1.37
A33U A116G | 1.55
A36U A78G | 0.21
A36G G99A | 0.74
A36U A96G | 1.74
A36U A59G | 1.26
A36U A59U | 1.33
C34U A90G | 0.74
A36U A111G | 0.02
U37C A110C | 0.1
U37A A90G | 0.73
C35U U38A | 0.41
C35A A116G | 0.83
A33U A98G | 1.53
A33G G115U | 0.06
U37C A91G | 1.36

Variant | self-cleavage
U37C A91U | 2
C34U A64G | 0.98
C34A U122C | 0.77
C34U A68G | 1.8
C34U A60G | 1.29
U37A A135U | 2.22
A36U U132C | 1.2
A36U A89G | 1.41
C34U C105U | 0.4
A33U C81U | 0.27
C35U U108A | 0.02
A36C U131C | 1.1
C34U G123A | 1.87
A36G U122A | 1.66
A36G U122C | 1.25
C34U | 1.35
C34G | 1.98
C34A | 1.12
U37C A52U | 0.57
U37C A52G | 1.4
A36G U72C | 0.14
A33U A129G | 1.03
A33U A129U | 1.42
U37C A114U | 0.15

Variant | self-cleavage
A36G A82G | 0.53
A36G A82U | 0.1
A33U A111G | 0.03
A36G U37G | 1.45
A33U U72C | 0.3
U37C A92U | 1.61
A36C A64G | 2.21
A36C A78C | 0.32
U37C A47U | 0.63
A36U U139A | 2.31
U37A A68G | 0.51
A36G A54G | 0.96
A33U A47G | 1.68
A33U A47U | 0.84
C35G A59G | 1.58
A33G U57C | 0.64
A33U A96G | 0.16
U37A U72C | 0.37
A36U U72C | 0.32
A36U U72A | 0.37
C34A A82G | 0.76
A36G A118C | 1.46
A36G A118G | 1.47
A36G A118U | 0.73

Variant | self-cleavage
A36U U70G | 1.53
A36G A67U | 1.85
A36G A67G | 1.7
A33G U100C | 2.23
U37C A125G | 0.68
A36U A90G | 1.74
C35U U70A | 0.97
C35U U70C | 0.58
A36C A69C | 1.47
A36U A54G | 1.02
A36U A54C | 1.73
A36U A82U | 0.31
A33G U43C | 0.71
A36G A56G | 1.3
A36G G83U | 0.41
C35A U43A | 2.06
A33U U127C | 1
A33U A126U | 1.67
A33U A126G | 1.4
A36G A135G | 1.59
A36U A94G | 1.44
C34A A89G | 1.66
C34A A89U | 1.63
A36G A134U | 1.6

Variant | self-cleavage
A33G U132C | 0.83
A33G U132A | 0.51
A33U U131C | 1.83
A36G G65U | 1.06
A36U G83A | 1.13
A33U C77A | 1
C34U A54G | 1.6
C34U A117G | 1.91
U37C C107U | 0.02
C34U A125G | 0.63
A33U A62U | 2.26
A33U A62G | 1.52
A36U C107G | 0.03
U37C A64G | 1.54
U37A U108C | 0
A36U G123A | 1.73
A36U A98U | 2.42
A36U C128A | 1.18
A36G A116U | 1
C35U A110G | 0.14
A36C U87A | 2.59
A36C U87C | 1.04
A33U A134G | 1.2
A36G A86U | 2.91

Variant | self-cleavage
A36G A86G | 1.01
C35U A62G | 0.56
U37C C101U | 0.78
U37C C101A | 0.22
A33G U103C | 0.4
A33G U103A | 0.46
C34A A52G | 1.28
A36G U43G | 1.28
U37C A95U | 1.73
U37C C76U | 0.06
U37C A135G | 0.95
A36G A140G | 1.31
C34U A116G | 0.54
C35U U103C | 0.29
A33G U130A | 1.1
A33G U130C | 0.66
C34U A94G | 1.55
A36G U38C | 1.19
A36G U127C | 1.34
A36G U127A | 1.87
U37C A86G | 1.47
A36C G41U | 1.47
